Patent publication US20250223342A1 (ARGENX, published 2025)
Residue numbers refer to the chain shown, from its start.

B1: 2A10 (VHH)
VHH: EVQLVESGGGLVQAGGSLRLSCAASGRTFSSYAMGWFRQAPGKEREFVATINWSGGSTYYADSVKGRFTISRDNAKNTVYLQMNSLKPEDTAVYYCAADLYGPGFVLSMEYDYWGQGTQVTVSS
B2: 2H11 (VHH)
VHH: ELQVVESGGGLVQAGGSLRLSCAASGRTFRSNTMGWFRQAPGKEREFVAAITWSGGTTYYADSVKGRFAISGDNAKNTVYLQMNSLKPEDTAVYYCAAEGPKWEPWNGIYHPADFGSWGQGTQVTVSS
notes: also called 2H11 parental (VHH)
B3: 1E04 (VHH)
VHH: QLQLVESGGGLVQTGGSLRLSCAASGRTFSNYNAGWFRQVPGKEPEFVAAINWSGGTTYYADSVKGRFTISRDNAKNTVYLQMNSLKPEDTAVYYCAADPDWSILNPREYDYWGQGTRVTVSS
B4: 4G12 (VHH)
VHH: QLQLVESGGGLVQAGGSLRLSCVASGRSFSTYGMGWFRQAPGAEREFAAAINWKGDRYYADSVKGRFTISRDNAKNTVFLEMNSLKPEDTGVYYCAADSDGSAFSRRLEYDYWGQGTQVTVSS
B5: 2B03 (VHH)
VHH: QLQLVESGGGLVQAGGSLRLSCAASGRAISSYVMAWFRQAPGKEREFVTSINWSGGSTYYAHSVKGRFTISRDNAKNTVYLQMNTLKPEDTAVYYCAADLYGLGYEVMSYDYWGQGTQVTVSS
B6: 2C10 (VHH)
VHH: QLQLVESGGGLVQAGGSLRLSCAASGRTFSSYAMGWFRQAPGKEREFVAVISWSGGSTYYADSVKGRFTISGDNAKNTVYLQMNSLKPEDTAVYYCATEGPKWEPYNGIYSPADFGSWGQGTQVTVSS
B7: 2H11-v15 fused at the C-terminus of Fc-ABDEG (two-armed Fc-ABDEG-20GS-Cterm fusion) (Fc fusion, not shown: a dimerising Fc or GST; large carriers; small tags and cut ends)
VHH: B2 VHH with D114A
B8: 2H11-v12 fused at the C-terminus of Fc-ABDEG (two-armed Fc-ABDEG-20GS-Cterm fusion) (Fc fusion, not shown: a dimerising Fc or GST; large carriers; small tags and cut ends)
VHH: B2 VHH with Y110A
B9: 2H11-v9 fused at the C-terminus of Fc-ABDEG (two-armed Fc-ABDEG-20GS-Cterm fusion) (Fc fusion, not shown: a dimerising Fc or GST; large carriers; small tags and cut ends)
VHH: B2 VHH with N107A
B10: 2H11-v16 fused at the C-terminus of Fc-ABDEG (two-armed Fc-ABDEG-20GS-Cterm fusion) (Fc fusion, not shown: a dimerising Fc or GST; large carriers; small tags and cut ends)
VHH: B2 VHH with F115A
B11: 2H11-v3 fused at the C-terminus of Fc-ABDEG (two-armed Fc-ABDEG-20GS-Cterm fusion) (Fc fusion, not shown: a dimerising Fc or GST; large carriers; small tags and cut ends)
VHH: B2 VHH with P101A
B12: 2H11-v8 fused at the C-terminus of Fc-ABDEG (two-armed Fc-ABDEG-20GS-Cterm fusion) (Fc fusion, not shown: a dimerising Fc or GST; small tags and cut ends)
VHH: B2 VHH with W106A
B13: 11C03 CDR1-V2 fused at the C-terminus of Fc-ABDEG (Fc fusion, not shown: a dimerising Fc or GST; small tags and cut ends)
chain: QLQVVESGGGLVQAGGSLRLSCAASERTFVAAPMGWFRQAPEKEREFVAGISWFAGATTDYADSVEGRFTISRDNAKNTAYLQMNNLKPEDTAVYYCAISHQLPGGRPGRDMDSYSYWGHGTQVTVSS
B14: 11C03 (VHH)
VHH: B13 chain with A32Y
notes: also called 11C03 parental (VHH)
B15: 11C03 CDR2-V12 fused at the C-terminus of Fc-ABDEG (Fc fusion, not shown: a dimerising Fc or GST; small tags and cut ends)
chain: B13 chain with A32Y, Y61A
B16: 11C03 CDR2-V2 fused at the C-terminus of Fc-ABDEG (Fc fusion, not shown: a dimerising Fc or GST; small tags and cut ends)
chain: B13 chain with A32Y, I51A
B17: 11C03 CDR1-V3 fused at the C-terminus of Fc-ABDEG (Fc fusion, not shown: a dimerising Fc or GST; small tags and cut ends)
chain: B13 chain with A32Y, P33A
B18: 11C03 CDR2-V10 fused at the C-terminus of Fc-ABDEG (Fc fusion, not shown: a dimerising Fc or GST; small tags and cut ends)
chain: B13 chain with A32Y, T59A
B19: 11C03 CDR2-V4 fused at the C-terminus of Fc-ABDEG (Fc fusion, not shown: a dimerising Fc or GST; small tags and cut ends)
chain: B13 chain with A32Y, W53A
B20: 11C03 CDR2-V5 fused at the C-terminus of Fc-ABDEG (Fc fusion, not shown: a dimerising Fc or GST; small tags and cut ends)
chain: B13 chain with A32Y, F54A
B21: 11C03 CDR2-V3 fused at the C-terminus of Fc-ABDEG (Fc fusion, not shown: a dimerising Fc or GST; small tags and cut ends)
chain: B13 chain with A32Y, S52A
B22: 11C03 CDR2-V7 fused at the C-terminus of Fc-ABDEG (Fc fusion, not shown: a dimerising Fc or GST; small tags and cut ends)
chain: B13 chain with A32Y, G56A

Legend:
[1] = target: T1, human serum albumin (human, UniProt P02768 25-609); assay: SPR (Biacore), off-rate pH 7.4 over pH 5.5
T1 construct: also called HSA

[2] = target: T2, cynomolgus monkey serum albumin (cynomolgus monkey, UniProt A2V9Z4 25-608); assay: species reactivity, screening by ELISA and Biacore
T2 construct: also called cyno albumin; CSA

[3] = target: T1, human serum albumin; assay: SPR (Biacore), VHH clone, pH 5.5
[4] = target: T1, human serum albumin; assay: SPR (Biacore), VHH clone, pH 7.4
[5] = target: T3, isolated DII of serum albumin (UniProt P02768 211-403, limits assumed); assay: DII binder column of the clone screening
T3 construct: domain: DII

[6] = target: T2, cynomolgus monkey serum albumin; assay: SPR (Biacore 3000), albumin on chip, Fc-ABDEG fusion
[7] = target: T1, human serum albumin; assay: SPR (Biacore 3000), HSA on chip, Fc-ABDEG fusion, pH 7.4
[8] = target: T2, cynomolgus monkey serum albumin; assay: SPR (Biacore 3000), cyno albumin on chip, Fc-ABDEG fusion, pH 5.5
[9] = target: T1, human serum albumin; assay: SPR (Biacore 3000), HSA on chip, Fc-ABDEG fusion, pH 5.5
[10] = target: T2, cynomolgus monkey serum albumin; assay: SPR (Biacore 3000), cyno albumin on chip, Fc-ABDEG fusion, pH 7.4
[11] = target: T1, human serum albumin; assay: SPR (Biacore 3000), HSA on chip, Fc-ABDEG fusion, ratio of R0
[12] = target: T2, cynomolgus monkey serum albumin; assay: SPR (Biacore 3000), cyno albumin on chip, Fc-ABDEG fusion, ratio of R0
[13] = target: T4, mouse serum albumin (mouse, UniProt P07724 25-608); assay: species reactivity, screening by ELISA and Biacore
T4 construct: also called MSA; mouse albumin

Binder | Ratio Kd [1] | Kd [3] [nM] | koff [3] [s⁻¹] | koff [4] [s⁻¹] | R0 pH 7.4 [7] [RU] | R0 pH 5.5 [8] [RU] | R0 pH 5.5 [9] [RU] | R0 pH 7.4 [10] [RU] | R0 5.5/7.4 [11] | further results
B1 | 3.3 | 96.9 | 0.0034 | 0.011 | – | – | – | – | – | binding result [2]: binds; binding result [5]: no binding
B2 | 81.9 | 6.84 | 0.00063 | 0.052 | – | – | – | – | – | –
B3 | 2.1 | 55.2 | 0.0026 | 0.0054 | – | – | – | – | – | binding result [2]: binds; binding result [5]: no binding
B4 | 1.8 | 12.4 | 0.0019 | 0.0033 | – | – | – | – | – | binding result [2]: binds; binding result [5]: no binding
B5 | 8.7 | 16.6 | 0.0029 | 0.025 | – | – | – | – | – | binding result [2]: binds; binding result [5]: no binding
B6 | 1.3 | 49.3 | 0.0045 | 0.0056 | – | – | – | – | – | binding result [5]: no binding
B7 | – | – | – | – | – | – | – | – | – | binding result [6]: no binding
B8 | – | – | – | – | – | – | – | – | – | binding result [6]: no binding
B9 | – | – | – | – | – | – | – | – | – | binding result [6]: no binding
B10 | – | – | – | – | – | – | – | – | – | binding result [6]: no binding
B11 | – | – | – | – | – | – | – | – | – | binding result [6]: no binding
B12 | – | – | – | – | – | – | – | – | – | binding result [6]: no binding
B13 | – | – | – | – | 5.82 | 37.8 | 108 | 2.11 | 19 | R0 5.5/7.4 [12]: 17.9
B14 | 7.7 | 4.12 | 0.00051 | 0.0039 | – | – | – | – | – | binding result [13]: binds
B15 | – | – | – | – | 1.5 | 26 | 38.7 | 1.35 | 26 | R0 5.5/7.4 [12]: 19.3
B16 | – | – | – | – | 1.22 | 5.22 | 15.1 | 1.2 | 12 | R0 5.5/7.4 [12]: 4.35
B17 | – | – | – | – | 5.1 | 103 | 109 | 5.2 | 21 | R0 5.5/7.4 [12]: 19.8
B18 | – | – | – | – | 8.6 | 105 | 136 | 5.65 | 16 | R0 5.5/7.4 [12]: 18.6
B19 | – | – | – | – | 0.826 | 0 | 12.3 | 2.77 | 15 | –
B20 | – | – | – | – | 1.06 | 0 | 12.3 | 1.1 | 12 | –
B21 | – | – | – | – | 2.4 | 54.2 | 68.5 | 2.6 | 28 | R0 5.5/7.4 [12]: 20.8
B22 | – | – | – | – | 1.12 | 0 | 4.57 | 1.09 | 4 | –
